Data: the supplement of paper PMC9170038

Tested on: MS2 coat protein
Experiment: apparent KD of MS2 coat protein; designed switch direction (-1 OFF switch, 1 ON switch): -1; higher = weaker reporter binding
Summary of the method: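 SNAP-549-labelled MS2 coat protein was titrated, doubling from 0.7 or 1.5 nM to 3 µM, over designed RNA switches transcribed on Illumina chips by stalled E. coli RNA polymerase. Runs were done without input, with 200 uM small-molecule ligand, or with an oligonucleotide input. Apparent KD is the per-design median over clusters of curve-fitted normalised fluorescence.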

[1] = input ligand: microRNA oligo, concentration not stated
[2] = Eterna round: R95, input ligand: FMN 200 uM
[3] = Eterna round: R95, input ligand: microRNA oligo, concentration not stated
[4] = Eterna round: R95, input ligand: none

Sequence | apparent KD of MS2 coat protein (input ligand: FMN 200 uM) [nM] | apparent KD of MS2 coat protein (input ligand: none) [nM] | apparent KD of MS2 coat protein [3] [nM] | also measured
UUUAAUUUUUUUUUUUUACAAGCUUUUUGCUCGUCUUAUACAUGAGGAUCACCCAUGUGGGUAGAGAGUAAAUUAUC [JMF 59] (Eterna round: R96, puzzle: Sensor v3, turn-off variant 2) | 21.1 | 19.3 | – | apparent KD of MS2 coat protein [1]: 102 nM
UUUAAUUUUUUUUUUUUACAAGCUUUUUGCUCGUCUUAUACAUGAGGAUCACCCAUGUGGGUAGAGAGUAAAUUAUC [JMF 59] (puzzle: Sensor v3, turn-off variant 2) | – | – | 80.6 | apparent KD of MS2 coat protein [2]: 16.7 nM; apparent KD of MS2 coat protein [4]: 16.1 nM
UUUAAUUUUUUUUUUUUACAAGCUUUUUGCUCGUCUUAUACAUGAGGAUCACCCAUGUGGGUGAGGGAUAAAUUAUC [JMF 42] (puzzle: Sensor v3, turn-off variant 2) | – | – | 27.2 | apparent KD of MS2 coat protein [2]: 16.3 nM; apparent KD of MS2 coat protein [4]: 574 nM
UUUAAUUUUUUUUUUUUACAAGCUUUUUGCUCGUCUUAUACAUGAGGAUCACCCAUGUGGGUGGAGAGUAAAUUAUC [JMF 60] (puzzle: Sensor v3, turn-off variant 2) | – | – | 47.1 | apparent KD of MS2 coat protein [2]: 45.4 nM; apparent KD of MS2 coat protein [4]: 56 nM
UUUAAUUUUUUUUUUUUACAAGCUUUUUGCUCGUCUUAUACAUGAGGAUCACCCAUGUGGGUGGGAGGUAAAUUAUC [JMF 78] (puzzle: Sensor v3, turn-off variant 2) | – | – | 26.1 | apparent KD of MS2 coat protein [2]: 63.7 nM; apparent KD of MS2 coat protein [4]: 82.6 nM
UUUACAAGCUAUAGAUCCCACAUGAGGAUCACCCAUGUUCCUGGCCGUGAGGCUAGGUAAACUAUUGCUCGUCUUAU [JL TOV1 3.66] (Eterna round: R97, puzzle: Sensor, turn-off variant 1) | 252 | 294 | – | –
UUUACAAGCUAUAGAUCCCACAUGAGGAUCACCCAUGUUGCUGCCAACGGUAGCUUUUUAUGGUUUGCUCGUCUUAU [JL TOV1 3.35] (Eterna round: R97, puzzle: Sensor, turn-off variant 1) | 443 | 1860 | – | –
UUUACAAGCUUUAGAUCCCACAUGAGGAUCACCCAUGUUGCUGCCGUGAGGUAGCUUUUAACUAAUGCUCGUCUUAU [JL TOV1 3.41] (Eterna round: R97, puzzle: Sensor, turn-off variant 1) | 103 | 124 | – | –
UUUACCAGAGGAUAUGCGAAUAAAUAAAACUUUUUUUUUUAACAUGAGGAUCACCCAUGUAGAAGGCUGCAUUU [Ex2 #29] (Eterna round: R97, puzzle: Exclusion 2) | 25.5 | 28.2 | – | –
UUUAUACAUGAGGAUCACCCAUGUGAGGAUAUGCUUUAUUAUUAUUAUUAUUAUUAUUGCAGAAGGUACAUUAU [LRO-Excl01-14] (Eterna round: R97, puzzle: Exclusion 1) | 35.7 | 37.7 | – | –
UUUAUAGUAGGAUAUACAUGAGGAUCACCCAUGUAGUAGGGAAGACCUUGGUGGGAACGUAGAAGGACUUGGAG [Eternabot (L2) Solution 44] (Eterna round: R97, puzzle: Exclusion 3) | 73.3 | 74.2 | – | –
UUUAUAUAGUAAGGAUAUGUAUUAAUUUUAUCAACAGAAGGUACUGACAUGAGGAUCACCCAUGUUUUAGUGUGGGCAUGUAGU [JMF's solution 93] (Eterna round: R96, puzzle: Exclusion NG 1) | 543 | 536 | – | apparent KD of MS2 coat protein [1]: 493 nM
UUUAUGUCAGGAUAUACAUGAGGAUCACCCAUGUAUAUCUUAAAGUAUACAUGGGAAUGUAGAAGGGACGUCCU [LRO-Excl05-29-mod of Pseudoloop5 by Omei] (Eterna round: R97, puzzle: Exclusion 3) | 31.3 | 30.2 | – | –
UUUAUGUGAGGAUAUGCGGGCGGGCGUGAAAAUGUUUGUUUGUAGAAGGUACAUGAGGAUCACCCAUGUAGUGG [-22, -21.6 kcal, 24% A] (Eterna round: R97, puzzle: Exclusion 4) | 180 | 57.2 | – | –
UUUAUUUUGCAAGGAUAUGUUUAAUUUUAGUUUCCUUAUACAUGAGGAUCACCCAUGUUAUACUUACAGAAGGUGCAUAAUUUU [JR_ExcNG2_Sub037] (Eterna round: R96, puzzle: Exclusion NG 2) | – | – | – | apparent KD of MS2 coat protein [1]: 68.7 nM
UUUCCCGUUCAGGCUGGAAACAUGAGGAUCACCCAUGUUCAAUCGGUUCUGUUAGCUGCUCGUCUUUUACACUUUCC [Eternabot (L1) Solution 39] (Eterna round: R97, puzzle: Sensor, turn-off variant 1) | 20.5 | 20.3 | – | –
UUUCCCUGUGUGAGGAUAUACUUGUUUGGGUUUUUGUAGAAGGCACAUGAGGAUCACCCAUGUACUCUGUCCUG [JR_BME4_Sub022] (puzzle: Brourd's mod of Exclusion 4) | – | – | 22.1 | –
UUUGAUUGCACAGGAUAUUGUCAUUUGAGUUGUCAAGAAGGGUGUACAUGAGGAUCACCCAUGUAAUGGUUGCCUCGCUGACUU [JR_ExcNG1_Sub008] (Eterna round: R96, puzzle: Exclusion NG 1) | – | – | – | apparent KD of MS2 coat protein [1]: 77.1 nM

Sequence | apparent KD of MS2 coat protein (input ligand: FMN 200 uM) [nM] | apparent KD of MS2 coat protein (input ligand: none) [nM] | apparent KD of MS2 coat protein [3] [nM] | also measured
UUUGCAAGCUAAAGAUCCCACAUGAGGAUCACCCAUGUUGCUGCCGUGAGGUAGCAUUUAACUUUUGCUCGUCUUAU [JL TOV1 3.49] (Eterna round: R97, puzzle: Sensor, turn-off variant 1) | 282 | 300 | – | –
UUUGUACAUGAGGAUCACCCAUGUUAGGAUAUCUCGCCGUCGGCUUGCCGACGGUAUUAGAGAAGGGACAAGGG [JL Tixe mod 8] (puzzle: Exclusion 1) | – | – | 94.2 | –
UUUGUUUAUGUAGGAUAUGCCUGGCGUGCCUUCGCAGAAGGACAUGAGGAUCACCCAUGUAUUGCGGUCUGCGUUCAGAUCGCA [salish99_ExNG1_r4_031] (Eterna round: R96, puzzle: Exclusion NG 1) | 72.6 | 42.5 | – | apparent KD of MS2 coat protein [1]: 30 nM
UUUUAACAUGAGGAUCACCCAUGUGAGGAUAUCGAAAUUUAUAUUAAUAUUAAUAUAACGAGAAGGCACAUUUU [JMF 23] (puzzle: Exclusion 1) | – | – | 47.2 | –
UUUUAACAUGAGGAUCACCCAUGUGAGGAUAUCGAAAUUUAUAUUAAUAUUAAUAUUACGAGAAGGCACAUUUU [JMF 26] (puzzle: Exclusion 1) | – | – | 77 | –
UUUUAACAUGAGGAUCACCCAUGUGAGGAUAUCGAAAUUUAUAUUAAUAUUAUUAUAUCGAGAAGGCACAUUUU [JMF 40] (puzzle: Exclusion 1) | – | – | 86.6 | –
UUUUAACAUGAGGAUCACCCAUGUGAGGAUAUCGAAAUUUAUAUUAAUAUUAUUUUAACGAGAAGGCACAUUUU [JMF 47] (puzzle: Exclusion 1) | – | – | 67.2 | –
UUUUAACAUGAGGAUCACCCAUGUGAGGAUAUCGAAAUUUAUAUUAAUAUUUAUUAUACGAGAAGGCACAUUUU [JMF 62] (puzzle: Exclusion 1) | – | – | 77.5 | –
UUUUAACAUGAGGAUCACCCAUGUGAGGAUAUCGAAAUUUAUAUUUAUAUUAAUAAAUCGAGAAGGCACAUUUU [JMF 76] (puzzle: Exclusion 1) | – | – | 119 | –
UUUUAACAUGAGGAUCACCCAUGUGAGGAUAUCGAAAUUUAUAUUUAUAUUUAUAUUUCGAGAAGGCACAUUUU [JMF 97] (puzzle: Exclusion 1) | – | – | 131 | –
UUUUAACAUGAGGAUCACCCAUGUGAGGAUAUCGAUAUUUUUAUUAAUAUUAAUAAAACGAGAAGGCACAUUUU [JMF 15] (puzzle: Exclusion 1) | – | – | 65.4 | –
UUUUACAUAGGAUAUAGUUUCUUUUACAUGAGGAUCACCCAUGUUUCUCUUCUCUCUCUUCUAGAAGGAUGUUUCU [JR_E5_Sub013] (puzzle: Exclusion 5) | – | – | 33.5 | –
UUUUAGCUAGGAUAUACAUUUUUUUUAUUAUCCUCAUUAUUACAUGAGGAUCACCCAUGUAGAAGGAGCAUUUU [My Design] (puzzle: Exclusion 2) | – | – | 219 | –
UUUUAGGCAGGAUAUACAUUUUUUUUAUUAUCCUCAUUAUUACAUGAGGAUCACCCAUGUAGAAGGGCCAUUUU [My Design] (puzzle: Exclusion 2) | – | – | 38.5 | –
UUUUAGUCAGGAUAUACAUGAGGAUCACCCAUGUAAAAUUUUAAUUUAAUUUUAAGGUGUAGAAGGGACAAUAA [Ex3 #8] (Eterna round: R97, puzzle: Exclusion 3) | 32.2 | 31.3 | – | –
UUUUGGCAUGUAGGAUAUGGGUCCGAUUAGGAUUUAGAAGGACAUGAGGAUCACCCAUGUGCCCUUACUUGGUCUUUUUUUUUU [EXclNG1-LROPPY18] (Eterna round: R96, puzzle: Exclusion NG 1) | 52.3 | 41.2 | – | apparent KD of MS2 coat protein [1]: 19.2 nM
UUUUUACAUGAGGAUCACCCAUGUGAGGAUAUGGAGCGCGACCGCGCGGUCGCGUACACCAGAAGGCGCAGGAA [1st #75] (Eterna round: R97, puzzle: Exclusion 1) | 30.6 | 24.9 | – | –
